# System: KDM4A-I71AzF
# Assay: CASI: photo-crosslinking with HEK293T cell extracts, StrepTactin enrichment and LC-MS/MS proteomics;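 note: lysates from HEK293T cells pretreated with a KDM4 inhibitor to raise proteome methylation, affinity-purified after ±UV, gel-resolved, trypsin-digested, with exclusive unique peptides per protein averaged per condition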
# Format: binding, human
# Conditions: sheet "Final results but with 0.01"
row,Molecule,Fold change (+UV/-UV)
1,"SMC3_HUMAN (protein, UniProt Q9UQE7 1-1217, looked up) Structural maintenance of …: MYIKQVIIQGFRSYRDQTIVDPFSSKHNVIVGRNGSGKSNFFYAIQFVLSDEFSHLRPEQRLALLHEGTGPRVISAFVEIIFDNSDNRLPIDKEEVSLRRVIGAKKDQYFLDKKMVTKNDVMNLLESAGFSRSNPYYIVKQGKINQMATAPDSQRLKLLREVAGTRVYDERKEESISLMKETEGKREKINELLKYIEERLHTLEEEKEELAQYQKWDKMRRALEYTIYNQELNETRAKLDELSAKRETSGEKSRQLRDAQQDARDKMEDIERQVRELKTKISAMKEEKEQLSAERQEQIKQRTKLELKAKDLQDELAGNSEQRKRLLKERQKLLEKIEEKQKELAETEPKFNSVKEKEERGIARLAQATQERTDLYAKQGRGSQFTSKEERDKWIKKELKSLDQAINDKKRQIAAIHKDLEDTEANKEKNLEQYNKLDQDLNEVKARVEELDRKYYEVKNKKDELQSERNYLWREENAEQQALAAKREDLEKKQQLLRAATGKAILNGIDSINKVLDHFRRKGINQHVQNGYHGIVMNNFECEPAFYTCVEVTAGNRLFYHIVDSDEVSTKILMEFNKMNLPGEVTFLPLNKLDVRDTAYPETNDAIPMISKLRYNPRFDKAFKHVFGKTLICRSMEVSTQLARAFTMDCITLEGDQVSHRGALTGGYYDTRKSRLELQKDVRKAEEELGELEAKLNENLRRNIERINNEIDQLMNQMQQIETQQRKFKASRDSILSEMKMLKEKRQQSEKTFMPKQRSLQSLEASLHAMESTRESLKAELGTDLLSQLSLEDQKRVDALNDEIRQLQQENRQLLNERIKLEGIITRVETYLNENLRKRLDQVEQELNELRETEGGTVLTATTSELEAINKRVKDTMARSEDLDNSIDKTEAGIKELQKSMERWKNMEKEHMDAINHDTKELEKMTNRQGMLLKKKEECMKKIRELGSLPQEAFEKYQTLSLKQLFRKLEQCNTELKKYSHVNKKALDQFVNFSEQKEKLIKRQEELDRGYKSIMELMNVLELRKYEAIQLTFKQVSKNFSEVFQKLVPGGKATLVMKKGDVEGSQSQDEGEGSGESERGSGSQSSVPSVDQFTGVGIRVSFTGKQGEMREMQQLSGGQKSLVALALIFAIQKCDPAPFYLFDEIDQALDAQHRKAVSDMIMELAVHAQFITTTFRPELLESADKFYGVKFRNKVSHIDVITAEMAKDFVEDDTTHG",0.375
2,"KRT85_HUMAN (protein, UniProt P78386 1-507, looked up) Keratin, type II cuticular Hb5: MSCRSYRISSGCGVTRNFSSCSAVAPKTGNRCCISAAPYRGVSCYRGLTGFGSRSLCNLGSCGPRIAVGGFRAGSCGRSFGYRSGGVCGPSPPCITTVSVNESLLTPLNLEIDPNAQCVKQEEKEQIKSLNSRFAAFIDKVRFLEQQNKLLETKWQFYQNQRCCESNLEPLFSGYIETLRREAECVEADSGRLASELNHVQEVLEGYKKKYEEEVALRATAENEFVVLKKDVDCAYLRKSDLEANVEALVEESSFLRRLYEEEIRVLQAHISDTSVIVKMDNSRDLNMDCIIAEIKAQYDDVASRSRAEAESWYRSKCEEMKATVIRHGETLRRTKEEINELNRMIQRLTAEIENAKCQRAKLEAAVAEAEQQGEAALSDARCKLAELEGALQKAKQDMACLLKEYQEVMNSKLGLDIEIATYRRLLEGEEHRLCEGVGSVNVCVSSSRGGVSCGGLSYSTTPGRQITSGPSAIGGSITVVAPDSCAPCQPRSSSFSCGSSRSVRFA",3
3,"SF3B2_HUMAN (protein, UniProt Q13435 1-895, looked up) Splicing factor 3B subunit 2: MATEHPEPPKAELQLPPPPPPGHYGAWAAQELQAKLAEIGAPIQGNREELVERLQSYTRQTGIVLNRPVLRGEDGDKAAPPPMSAQLPGIPMPPPPLGLPPLQPPPPPPPPPPGLGLGFPMAHPPNLGPPPPLRVGEPVALSEEERLKLAQQQAALLMQQEERAKQQGDHSLKEHELLEQQKRAAVLLEQERQQEIAKMGTPVPRPPQDMGQIGVRTPLGPRVAAPVGPVGPTPTVLPMGAPVPRPRGPPPPPGDENREMDDPSVGPKIPQALEKILQLKESRQEEMNSQQEEEEMETDARSSLGQSASETEEDTVSVSKKEKNRKRRNRKKKKKPQRVRGVSSESSGDREKDSTRSRGSDSPAADVEIEYVTEEPEIYEPNFIFFKRIFEAFKLTDDVKKEKEKEPEKLDKLENSAAPKKKGFEEEHKDSDDDSSDDEQEKKPEAPKLSKKKLRRMNRFTVAELKQLVARPDVVEMHDVTAQDPKLLVHLKATRNSVPVPRHWCFKRKYLQGKRGIEKPPFELPDFIKRTGIQEMREALQEKEEQKTMKSKMREKVRPKMGKIDIDYQKLHDAFFKWQTKPKLTIHGDLYYEGKEFETRLKEKKPGDLSDELRISLGMPVGPNAHKVPPPWLIAMQRYGPPPSYPNLKIPGLNSPIPESCSFGYHAGGWGKPPVDETGKPLYGDVFGTNAAEFQTKTEEEEIDRTPWGELEPSDEESSEEEEEEESDEDKPDETGFITPADSGLITPGGFSSVPAGMETPELIELRKKKIEEAMDGSETPQLFTVLPEKRTATVGGAMMGSTHIYDMSTVMSRKGPAPELQGVEVALAPEELELDPMAMTQKYEEHVREQQAQVEKEDFSDMVAEHAAKQKQKKRKAQPQDSRGGSKKYKEFKF",0.7273
4,"AMOT_HUMAN (protein, UniProt Q4VCS5 1-1084, looked up) Angiomotin: MRNSEEQPSGGTTVLQRLLQEQLRYGNPSENRSLLAIHQQATGNGPPFPSGSGNPGPQSDVLSPQDHHQQLVAHAARQEPQGQEIQSENLIMEKQLSPRMQNNEELPTYEEAKVQSQYFRGQQHASVGAAFYVTGVTNQKMRTEGRPSVQRLNPGKMHQDEGLRDLKQGHVRSLSERLMQMSLATSGVKAHPPVTSAPLSPPQPNDLYKNPTSSSEFYKAQGPLPNQHSLKGMEHRGPPPEYPFKGMPPQSVVCKPQEPGHFYSEHRLNQPGRTEGQLMRYQHPPEYGAARPAQDISLPLSARNSQPHSPTSSLTSGGSLPLLQSPPSTRLSPARHPLVPNQGDHSAHLPRPQQHFLPNQAHQGDHYRLSQPGLSQQQQQQQQQHHHHHHHQQQQQQQPQQQPGEAYSAMPRAQPSSASYQPVPADPFAIVSRAQQMVEILSDENRNLRQELEGCYEKVARLQKVETEIQRVSEAYENLVKSSSKREALEKAMRNKLEGEIRRMHDFNRDLRERLETANKQLAEKEYEGSEDTRKTISQLFAKNKESQREKEKLEAELATARSTNEDQRRHIEIRDQALSNAQAKVVKLEEELKKKQVYVDKVEKMQQALVQLQAACEKREQLEHRLRTRLERELESLRIQQRQGNCQPTNVSEYNAAALMELLREKEERILALEADMTKWEQKYLEENVMRHFALDAAATVAAQRDTTVISHSPNTSYDTALEARIQKEEEEILMANKRCLDMEGRIKTLHAQIIEKDAMIKVLQQRSRKEPSKTEQLSCMRPAKSLMSISNAGSGLLSHSSTLTGSPIMEEKRDDKSWKGSLGILLGGDYRAEYVPSTPSPVPPSTPLLSAHSKTGSRDCSTQTERGTESNKTAAVAPISVPAPVAAAATAAAITATAATITTTMVAAAPVAVAAAAAPAAAAAPSPATAAATAAAVSPAAAGQIPAAASVASAAAVAPSAAAAAAVQVAPAAPAPVPAPALVPVPAPAAAQASAPAQTQAPTSAPAVAPTPAPTPTPAVAQAEVPASPATGPGPHRLSIPSLTCNPDKTDGPVFHSNTLERKTPIQILGQEPDAEMVEYLI",1.125
5,"RBM33_HUMAN (protein, UniProt Q96EV2 2-1170, looked up) RNA-binding protein 33: AAALGASGGAGAGDDDFDQFDKPGAERSWRRRAADEDWDSELEDDLLGEDLLSGKKNQSDLSDEELNDDLLQSDNEDEENFSSQGVTISLNATSGMVTSFELSDNTNDQSGEQESEYEQEQGEDELVYHKSDGSELYTQEYPEEGQYEGHEAELTEDQIEYVEEPEEEQLYTDEVLDIEINEPLDEFTGGMETLELQKDIKEESDEEEEDDEESGRLRFKTERKEGTIIRLSDVTRERRNIPETLELSAEAKAALLEFEERERQHKQGRYSSRRGGRRGGPLMCRGVGDQRRESTERGRMKDHRPALLPTQPPVVPQAPPPPPPPPQQQPIRSLFQPQPLQPLLPVQHPHHPSPPQGMHMPPQLETPRMMMTPPPVTPQQPKNIHINPHFKGTVVTPVQVPLLPVPSQPRPAVGPQRFPGPPEFPQHTPGPVPNSFSQPPRLPLQDQWRAPPPPQDRDPFFLGVSGEPRFPSHLFLEQRSPPPPPPPPTLLNSSHPVPTQSPLPFTQPGPAFNQQGQQPVFPRERPVRPALQPPGPVGILHFSQPGSATTRPFIPPRQPFLPGPGQPFLPTHTQPNLQGPLHPPLPPPHQPQPQQPQQQPPPQHQPPHQPPHQPPPQHQPPPQHPPQHPPQHQHHHHHHHLSVPPPPLMPMSQPQFRPHVQTAQPQASSSRMQCPQRQGLRHNTTSQNVSKRPMQQMQPTAPRNSNLRELPIAPSHVIEMSSSRCSATPSAQVKPIVSASPPSRAVAGSRSSQGKTEVKVKPASPVAQPKEEAKTETEFPDEDEETRLYRLKIEEQKRLREEILKQKELRRQQQAGARKKELLERLAQQQQQLYAPPPPAEQEEQALSPSPTNGNPLLPFPGAQVRQNVKNRLLVKNQDVSISNVQPKTSNFVPSSANMQYQGQQMKALKHLRQTRTVPQSQTQPLHKVLPIKPADVEEPAVPQTPRVASIQGRPQDTKPGVKRTVTHRTNSGGGDGPHISSKVRVIKLSGGGGESDGFFHPEGQPQRLPQPPEVGPQPARKVTLTRGGLQQPPHLPAGPHAHSPVPPGIKSIQGIHPAKKAIMHGRGRGVAGPMGRGRLMPNKQNLRVVECKPQPCVVSVEGLSSSTTDAQLKSLLMSVGPIQSLQMLPQQRKAIAKFKEPAHALAFQQKFHRHMIDLSHINVALIVE",0.3333
6,"ATX2L_HUMAN (protein, UniProt Q8WWM7 1-1075, looked up) Ataxin-2-like protein: MLKPQPLQQPSQPQQPPPTQQAVARRPPGGTSPPNGGLPGPLATSAAPPGPPAAASPCLGPVAAAGSGLRRGAEGILAPQPPPPQQHQERPGAAAIGSARGQSTGKGPPQSPVFEGVYNNSRMLHFLTAVVGSTCDVKVKNGTTYEGIFKTLSSKFELAVDAVHRKASEPAGGPRREDIVDTMVFKPSDVMLVHFRNVDFNYATKDKFTDSAIAMNSKVNGEHKEKVLQRWEGGDSNSDDYDLESDMSNGWDPNEMFKFNEENYGVKTTYDSSLSSYTVPLEKDNSEEFRQRELRAAQLAREIESSPQYRLRIAMENDDGRTEEEKHSAVQRQGSGRESPSLASREGKYIPLPQRVREGPRGGVRCSSSRGGRPGLSSLPPRGPHHLDNSSPGPGSEARGINGGPSRMSPKAQRPLRGAKTLSSPSNRPSGETSVPPPPAVGRMYPPRSPKSAAPAPISASCPEPPIGSAVPTSSASIPVTSSVSDPGVGSISPASPKISLAPTDVKELSTKEPGRTLEPQELARIAGKVPGLQNEQKRFQLEELRKFGAQFKLQPSSSPENSLDPFPPRILKEEPKGKEKEVDGLLTSEPMGSPVSSKTESVSDKEDKPPLAPSGGTEGPEQPPPPCPSQTGSPPVGLIKGEDKDEGPVAEQVKKSTLNPNAKEFNPTKPLLSVNKSTSTPTSPGPRTHSTPSIPVLTAGQSGLYSPQYISYIPQIHMGPAVQAPQMYPYPVSNSVPGQQGKYRGAKGSLPPQRSDQHQPASAPPMMQAAAAAGPPLVAATPYSSYIPYNPQQFPGQPAMMQPMAHYPSQPVFAPMLQSNPRMLTSGSHPQAIVSSSTPQYPSAEQPTPQALYATVHQSYPHHATQLHAHQPQPATTPTGSQPQSQHAAPSPVQHQAGQAPHLGSGQPQQNLYHPGALTGTPPSLPPGPSAQSPQSSFPQPAAVYAIHHQQLPHGFTNMAHVTQAHVQTGITAAPPPHPGAPHPPQVMLLHPPQSHGGPPQGAVPQSGVPALSASTPSPYPYIGHPQGEQPGQAPGFPGGADDRIREFSLAGGIWHGRAEGLQVGQDARVLGGE",0

# Source: article PMC10540216, “Activity Guided Azide-methyllysine Photo-trapping for Substrate Profiling of Lysine Demethylases” (Journal of the American Chemical Society, 2023)
